The supplement of paper PMC9732359
± gives the uncertainty stated by the source.

Assay: protein stability index of a GFP-peptide fusion (yeast GPS) (PSI 1-4); higher = more stable; sorted into four equal gates, so the index is relative within each strain
Outline: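 Tiled 17-residue yeast protein peptides were fused downstream of GFP in a plasmid that also expresses Cherry, and the pooled library was carried in yeast. Mid-log cultures in leucine-free medium were sorted into four equal gates by GFP/Cherry fluorescence ratio, and plasmids from each gate were PCR-amplified and Illumina-sequenced, with reads assigned to strains by barcodes. The protein stability index for each peptide was each gate's read frequency times its gate number, summed.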

For SSEIKIYYNELQNKPDA [SIR4], the protein stability index (doa10∆) was 2.91 ± 0.23, the protein stability index (pdr5∆) was 3.3 ± 0.14 and the protein stability index (san1∆) was 2.46 ± 0.29. It also gave a protein stability index (ubr1∆) of 3.23 ± 0.087.

Work on FNSVQKKSRSNLSQEND [YAR002W/NUP60] yielded a protein stability index (doa10∆) of 2.81 ± 0.09, a protein stability index (pdr5∆) of 2.85 ± 0.071 and a protein stability index (san1∆) of 2.49 ± 0.1. For the same sequence, the protein stability index (ubr1∆) was 3.12 ± 0.12.

GATSKPAFSFGAKPEEK [YJL041W/NSP1] gave a protein stability index (doa10∆) of 3.05 ± 0.098, a protein stability index (pdr5∆) of 3.4 ± 0.092 and a protein stability index (san1∆) of 3.31 ± 0.074. For the same sequence, the protein stability index (ubr1∆) was 3.11 ± 0.073.

In the case of LGMMYEQKLIDQHVINI [YCS4], the protein stability index (doa10∆) is reported as 2.08 ± 0.061, the protein stability index (pdr5∆) is reported as 2.28 ± 0.051 and the protein stability index (san1∆) is reported as 2.21 ± 0.064. The protein stability index (ubr1∆) was 2.08 ± 0.05.

Work on PSVIHSSVEMLLDVVKG [YDL116W/NUP84] yielded a protein stability index (doa10∆) of 2.56 ± 0.085, a protein stability index (pdr5∆) of 1.85 ± 0.11 and a protein stability index (san1∆) of 2.2 ± 0.057. The protein stability index (ubr1∆) was 1.42 ± 0.038.

For PLIIVSDGQSRVKDIHL [RET1], the protein stability index (doa10∆) was 2.88 ± 0.3, the protein stability index (pdr5∆) was 3.58 ± 0.24 and the protein stability index (san1∆) was 3.05 ± 0.2. It also gave a protein stability index (ubr1∆) of 2.79 ± 0.15.

For FDTDWNPHQDLQAQDRA [SNF2], the protein stability index (doa10∆) was 3.07 ± 0.068, the protein stability index (pdr5∆) was 3.16 ± 0.056 and the protein stability index (san1∆) was 2.94 ± 0.037. It also gave a protein stability index (ubr1∆) of 3.35 ± 0.05.

Work on NFQDLSYLSETLISRIS [YML103C/NUP188] yielded a protein stability index (doa10∆) of 2.38 ± 0.082, a protein stability index (pdr5∆) of 2.51 ± 0.079 and a protein stability index (san1∆) of 2.04 ± 0.093. The protein stability index (ubr1∆) was 2.32 ± 0.074.

Work on VDKGAIMKNKDFILSLL [YJL039C/NUP192] yielded a protein stability index (doa10∆) of 2 ± 0.17, a protein stability index (pdr5∆) of 1.81 ± 0.096 and a protein stability index (san1∆) of 1.95 ± 0.11. It also gave a protein stability index (ubr1∆) of 1.96 ± 0.069.

Work on IQEFQGNPYIELNQDRL [SNF5] yielded a protein stability index (doa10∆) of 3.13 ± 0.059, a protein stability index (pdr5∆) of 3.15 ± 0.07 and a protein stability index (san1∆) of 3.24 ± 0.06. It also gave a protein stability index (ubr1∆) of 3.23 ± 0.04.

IDNLESYAGISTDKLVQ [SIR2] showed a protein stability index (doa10∆) of 2.9 ± 0.057, a protein stability index (pdr5∆) of 2.93 ± 0.09 and a protein stability index (san1∆) of 2.94 ± 0.068. For the same sequence, the protein stability index (ubr1∆) was 3.08 ± 0.044.

RKILNFKKDLVIVLSNI [SWI1] gave a protein stability index (doa10∆) of 2.52 ± 0.1, a protein stability index (pdr5∆) of 2.25 ± 0.07 and a protein stability index (san1∆) of 2.11 ± 0.14. The protein stability index (ubr1∆) was 2.71 ± 0.087.

MSISLESSKALADSLDR [DIS3] showed a protein stability index (doa10∆) of 2.53 ± 0.067, a protein stability index (pdr5∆) of 2.8 ± 0.074 and a protein stability index (san1∆) of 2.52 ± 0.096. The protein stability index (ubr1∆) was 2.45 ± 0.071.

For EIKGASETPLQKTVNLK [RPN4], the protein stability index (doa10∆) was 3 ± 0.12, the protein stability index (pdr5∆) was 3.42 ± 0.13 and the protein stability index (san1∆) was 3.05 ± 0.1. For the same sequence, the protein stability index (ubr1∆) was 3.14 ± 0.056.

Work on LLFPKSTIVNLAREVPQ [DPB4] yielded a protein stability index (doa10∆) of 1.77 ± 0.14, a protein stability index (pdr5∆) of 2.24 ± 0.25 and a protein stability index (san1∆) of 1.72 ± 0.18. It also gave a protein stability index (ubr1∆) of 1.94 ± 0.14.

For RELYKYVRKHDPLNSNI [PRP28], the protein stability index (doa10∆) was 2.96 ± 0.083, the protein stability index (pdr5∆) was 2.86 ± 0.082 and the protein stability index (san1∆) was 2.96 ± 0.05. The protein stability index (ubr1∆) was 3.16 ± 0.09.

QDMEAAKEVYKIHQQLL [GAL11] showed a protein stability index (doa10∆) of 3.41 ± 0.22, a protein stability index (pdr5∆) of 3.41 ± 0.13 and a protein stability index (san1∆) of 3.5 ± 0.11. For the same sequence, the protein stability index (ubr1∆) was 3.41 ± 0.12.

For PMNAPTPAMIPYPGSPM [DSN1], the protein stability index (doa10∆) was 2.79 ± 0.044, the protein stability index (pdr5∆) was 2.76 ± 0.05 and the protein stability index (san1∆) was 2.99 ± 0.042. The protein stability index (ubr1∆) was 3.01 ± 0.034.

DPPFRIEEQGWGGFPLD [TAF14] gave a protein stability index (doa10∆) of 3.32 ± 0.055, a protein stability index (pdr5∆) of 3.33 ± 0.052 and a protein stability index (san1∆) of 3.44 ± 0.048. The protein stability index (ubr1∆) was 3.34 ± 0.047.

For CIVDFTNPKLKSEFDDL [YMR129W/POM152], the protein stability index (doa10∆) was 1.81 ± 0.067, the protein stability index (pdr5∆) was 2.1 ± 0.074 and the protein stability index (san1∆) was 1.82 ± 0.13. For the same sequence, the protein stability index (ubr1∆) was 1.69 ± 0.052.

With DDKLAYIRVNHADKDTF [POP8] the protein stability index (doa10∆) was 2.9 ± 0.059, the protein stability index (pdr5∆) was 2.58 ± 0.059 and the protein stability index (san1∆) was 2.72 ± 0.063. It also gave a protein stability index (ubr1∆) of 2.62 ± 0.049.

In the case of PINGNEAESQWYIEKVI [CSI1], the protein stability index (doa10∆) is reported as 2.47 ± 0.081, the protein stability index (pdr5∆) is reported as 2.88 ± 0.078 and the protein stability index (san1∆) is reported as 3.09 ± 0.1. It also gave a protein stability index (ubr1∆) of 2.93 ± 0.18.

DEEENGSSDEDLKSLNV [SSN2] gave a protein stability index (doa10∆) of 3.24 ± 0.11, a protein stability index (pdr5∆) of 3.54 ± 0.1 and a protein stability index (san1∆) of 3.35 ± 0.057. It also gave a protein stability index (ubr1∆) of 3.23 ± 0.093.

LRGCKFLQSVDITGIRD [GRR1] gave a protein stability index (doa10∆) of 1.72 ± 0.034, a protein stability index (pdr5∆) of 2.03 ± 0.046 and a protein stability index (san1∆) of 1.89 ± 0.053. It also gave a protein stability index (ubr1∆) of 1.83 ± 0.04.

TNSEDKLSKVQLYEDLC [MED4] showed a protein stability index (doa10∆) of 3.04 ± 0.083, a protein stability index (pdr5∆) of 3.22 ± 0.091 and a protein stability index (san1∆) of 3.09 ± 0.081. The protein stability index (ubr1∆) was 2.74 ± 0.059.

Sequence NSAQNNSTTSGGLFGNK [YGR119C/NUP57] has a protein stability index (doa10∆) of 3.25 ± 0.13, a protein stability index (pdr5∆) of 2.91 ± 0.13 and a protein stability index (san1∆) of 3.2 ± 0.073. For the same sequence, the protein stability index (ubr1∆) was 3.24 ± 0.17.
